Measurements reported in patent US20080292632A1 (US Dept. of Health and Human Services, published 2008).

Columns and labels:
Assay in all cases: FACS on transfected 293T (summary with IRTA-Fc ELISA, FIG. 2A and B)
[1] = target: T1, IRTA3, full-length, on transfected 293T cells (human, UniProt Q96P31 18-734)
T1 sequence: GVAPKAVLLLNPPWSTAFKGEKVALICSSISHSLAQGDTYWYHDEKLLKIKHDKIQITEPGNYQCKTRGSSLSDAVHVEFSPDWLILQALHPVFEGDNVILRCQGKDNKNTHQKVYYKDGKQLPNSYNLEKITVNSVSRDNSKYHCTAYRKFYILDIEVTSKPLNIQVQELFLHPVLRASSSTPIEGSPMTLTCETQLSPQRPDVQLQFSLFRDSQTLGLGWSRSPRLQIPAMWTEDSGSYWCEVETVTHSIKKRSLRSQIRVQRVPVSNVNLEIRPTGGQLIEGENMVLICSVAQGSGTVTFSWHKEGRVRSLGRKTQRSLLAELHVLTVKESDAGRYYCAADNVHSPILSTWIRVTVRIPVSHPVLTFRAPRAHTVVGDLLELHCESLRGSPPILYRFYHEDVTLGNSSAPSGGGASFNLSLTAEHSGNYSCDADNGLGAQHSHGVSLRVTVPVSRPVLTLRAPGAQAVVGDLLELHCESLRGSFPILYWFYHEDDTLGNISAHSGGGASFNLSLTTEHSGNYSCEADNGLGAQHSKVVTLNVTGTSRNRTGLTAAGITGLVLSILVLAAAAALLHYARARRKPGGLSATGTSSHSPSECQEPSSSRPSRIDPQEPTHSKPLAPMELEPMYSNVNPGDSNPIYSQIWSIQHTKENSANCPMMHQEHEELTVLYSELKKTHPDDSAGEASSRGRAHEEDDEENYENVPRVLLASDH
Protocol: (§1) FIGS. 2A-B are a bar graph and a set of plots showing the cross-reactivity of the anti-IRTA2 MAbs to other IRTA family members. FIG. 2A is a bar graph of the results from an ELISA of anti-IRTA2 MAbs to various Fc-fusion proteins. Each Fc-fusion protein indicated on the top of the column was captured on ELISA plates using secondary antibody (goat anti-human IgG). After washing, 100 ng/50 μl/well of MAbs were added, followed by HRP-labeled goat anti-mouse IgG and TMBZ substrate. The signals in ELISA were normalized for the amounts of each Fc-fusion protein on the plates using HRP-goat anti-human Fc. The controls are MAbs 9E10 (anti-myc tag, IgG1), BerH2 (anti-CD30, IgG1), T408 (anti-CD30, IgG2a), T420 (anti-CD30, IgG2b) and HRP-goat anti-human Fc (1/2400 dilution). […] Two days after transfection, the cells were harvested and incubated with 200 ng/100 μl of each MAb, followed by PE-conjugated goat anti-mouse IgG F(ab′)2. […] In the positive control panels, the MAbs cross-reactive to other IRTAs were used. They are F26 (anti-IRTA1 and anti-IRTA2, IgG2b), F109 (anti-IRTA3, IgG2b), F47 (anti-IRTA4, IgG2a), and F69 (anti-IRTA5, IgG2a). BerH2 (anti-CD30, IgG1) was also used. “+” indicates more than 1.5-fold than that of the control; “++” indicates more than 10-fold mean fluorescence intensity than that of the negative control.

[2] = target: T2, IRTA1, full-length, on transfected 293T cells (human, UniProt Q96PJ5 20-515)
T2 sequence: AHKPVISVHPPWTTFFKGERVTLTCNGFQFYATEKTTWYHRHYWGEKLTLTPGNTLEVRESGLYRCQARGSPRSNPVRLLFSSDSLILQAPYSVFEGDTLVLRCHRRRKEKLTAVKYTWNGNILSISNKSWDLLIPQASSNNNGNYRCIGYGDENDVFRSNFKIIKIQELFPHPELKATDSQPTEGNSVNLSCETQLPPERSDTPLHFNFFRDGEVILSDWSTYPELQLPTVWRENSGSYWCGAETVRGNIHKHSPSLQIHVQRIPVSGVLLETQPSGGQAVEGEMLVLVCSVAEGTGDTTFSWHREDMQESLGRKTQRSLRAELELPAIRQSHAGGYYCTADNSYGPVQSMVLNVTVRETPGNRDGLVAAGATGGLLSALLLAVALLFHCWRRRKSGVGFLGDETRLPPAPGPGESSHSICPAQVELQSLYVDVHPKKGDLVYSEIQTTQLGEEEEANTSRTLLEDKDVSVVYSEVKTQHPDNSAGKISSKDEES
Protocol: as §1

[3] = target: T3, IRTA4, full-length, on transfected 293T cells (human, UniProt Q96LA5 20-508)
T3 sequence: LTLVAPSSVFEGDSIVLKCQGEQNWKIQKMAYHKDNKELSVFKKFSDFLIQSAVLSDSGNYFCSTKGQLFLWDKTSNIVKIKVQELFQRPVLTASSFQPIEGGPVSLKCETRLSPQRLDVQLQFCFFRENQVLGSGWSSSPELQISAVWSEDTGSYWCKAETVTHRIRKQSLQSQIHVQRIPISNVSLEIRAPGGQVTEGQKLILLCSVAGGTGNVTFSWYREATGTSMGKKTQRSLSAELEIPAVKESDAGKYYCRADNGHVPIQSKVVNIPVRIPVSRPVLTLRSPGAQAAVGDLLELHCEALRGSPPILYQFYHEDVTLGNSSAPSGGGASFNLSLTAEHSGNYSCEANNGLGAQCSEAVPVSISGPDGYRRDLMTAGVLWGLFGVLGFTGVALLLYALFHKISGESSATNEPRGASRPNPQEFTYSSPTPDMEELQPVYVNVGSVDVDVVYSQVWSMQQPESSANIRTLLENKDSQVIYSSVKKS
Protocol: as §1

binding result [1]: no binding
binding result [2]: no binding
binding result [3]: no binding
B1: F25 (antibody, IgG2a, V domains shown)
VH: EVQLQQSGPELVKPGTSVKMSCKASGYSFTGYFMNWMMQNHGKSLEWIGRINLYNGDTFYNQKFKDKATLTVDKSSNTVHMEFRSLASEDSAVYYCASSLYYFDYWGQGTTFTVSS
VL: DIVMTQSHKFMSTSVGDRVNITCKASQDVGTNVAWYQQKPGQSPKLLIYWASTRQTGVPDRFTGSGSGTDFTLTISNVQSEDLSDYFCQQYSSYPLTFGAGTKLELKR
notes: mouse hybridoma MAb, IgG2a, kappa; also called MAb F25; biotin-MAb F25
